According to US20250339569A1 (3B PHARMACEUTICALS, published 2025):
Starred links: 1 amine or outer side, 2 acyl side, 3 side chain; linkers in the order of their positions; H or OH if unused. Positions of bridges follow the written chain, without caps; N, C: chain ends. Non-standard residues stand in square brackets, D forms with d. Groups on a side chain read outwards from the residue. Primed or numbered codes have the meaning given here. ξ: configuration not given here. *: point of attachment. DOTA = O=C(O)CN1CCN(CC(=O)O)CCN(CC(=O)*)CCN(CC(=O)O)CC1; Trp(5-Cl) = N[C@@H](Cc1c[nH]c2ccc(Cl)cc12)C(=O)O; ξTrp(5-Me) = Cc1ccc2[nH]cc(CC(N)C(=O)O)c2c1; Ttds(3) = NCCCOCCOCCOCCCNC(=O)CCC(=O)*; 1Nal = N[C@@H](Cc1cccc2ccccc12)C(=O)O; mXylylene = c1cc(C[*:1])cc(C[*:2])c1; Bta = N[C@@H](Cc1csc2ccccc12)C(=O)O; Hydrocinnamoyl = O=C(CCc1ccccc1)*; tBuAla = CC(C)(C)C[C@H](N)C(=O)O; Pen = CC(C)(S)[C@H](N)C(=O)O; Isovaleryl = CC(C)CC(=O)*; APAc = not defined here; Apr = not defined here; Bz′ = not defined here; Hexanoyl = CCCCCC(=O)*; PhAc = O=C(Cc1ccccc1)*; Aib = CC(C)(N)C(=O)O; Sar = CNCC(=O)O

B1: 3BP-3957 (peptide)
peptide: Ac-VYCE[dP]KWL[dE]WSC-NH2
modifications: linker 3-12 via mXylylene; lactam 6-9
SMILES: CC(=O)N[C@H](C(=O)N[C@@H](Cc1ccc(O)cc1)C(=O)N[C@H]1CSCc2cccc(c2)CSC[C@@H](C(N)=O)NC(=O)[C@H](CO)NC(=O)[C@H](Cc2c[nH]c3ccccc23)NC(=O)[C@H]2CCC(=O)NCCCC[C@H](NC(=O)[C@H]3CCCN3C(=O)[C@H](CCC(=O)O)NC1=O)C(=O)N[C@@H](Cc1c[nH]c3ccccc13)C(=O)N[C@@H](CC(C)C)C(=O)N2)C(C)C
B2: 3BP-3890 (peptide)
peptide: Ac-VYCE[dP]KWLEWSC-NH2
modifications: linker 3-12 via mXylylene; lactam 6-9
SMILES: CC(=O)N[C@H](C(=O)N[C@@H](Cc1ccc(O)cc1)C(=O)N[C@H]1CSCc2cccc(c2)CSC[C@@H](C(N)=O)NC(=O)[C@H](CO)NC(=O)[C@H](Cc2c[nH]c3ccccc23)NC(=O)[C@@H]2CCC(=O)NCCCC[C@H](NC(=O)[C@H]3CCCN3C(=O)[C@H](CCC(=O)O)NC1=O)C(=O)N[C@@H](Cc1c[nH]c3ccccc13)C(=O)N[C@@H](CC(C)C)C(=O)N2)C(C)C
B3: 3BP-3271 (peptide)
peptide: {DOTA-Ttds(3)}-VYCE[Sar]DWLTWQC-NH2
modifications: linker 3-12 via mXylylene
notes: also called DOTA-Ttds-Val-Tyr-[Cys(3MeBn)-Glu-Nmg-Asp-Trp-Leu-Thr-Trp-Gln-Cys]-NH2
B4: 3BP-3110 (peptide)
peptide: Hydrocinnamoyl-VYCEGDWLTWQC-NH2
modifications: linker 3-12 via mXylylene
SMILES: CC(C)C[C@@H]1NC(=O)[C@H](Cc2c[nH]c3ccccc23)NC(=O)[C@H](CC(=O)O)NC(=O)CNC(=O)[C@H](CCC(=O)O)NC(=O)[C@@H](NC(=O)[C@H](Cc2ccc(O)cc2)NC(=O)[C@@H](NC(=O)CCc2ccccc2)C(C)C)CSCc2cccc(c2)CSC[C@@H](C(N)=O)NC(=O)[C@H](CCC(N)=O)NC(=O)[C@H](Cc2c[nH]c3ccccc23)NC(=O)[C@H]([C@@H](C)O)NC1=O
B5: 3BP-3290 (peptide)
peptide: Ac-VYCE[Sar]D[ξTrp(5-Me)]LTWQC-NH2
modifications: linker 3-12 via mXylylene; not fully specified; also: position 7 is DL-5-methyltryptophan, configuration not given here
notes: also called Ac-Val-Tyr-[Cys(3MeBn)-Glu-Nmg-Asp-Egc-Leu-Thr-Trp-Gln-Cys]-NH2
B6: 3BP-3311 (peptide)
peptide: Ac-VYCE[Sar]D[Bta]LTWQC-NH2
modifications: linker 3-12 via mXylylene
SMILES: CC(=O)N[C@H](C(=O)N[C@@H](Cc1ccc(O)cc1)C(=O)N[C@H]1CSCc2cccc(c2)CSC[C@@H](C(N)=O)NC(=O)[C@H](CCC(N)=O)NC(=O)[C@H](Cc2c[nH]c3ccccc23)NC(=O)[C@H]([C@@H](C)O)NC(=O)[C@H](CC(C)C)NC(=O)[C@H](Cc2csc3ccccc23)NC(=O)[C@H](CC(=O)O)NC(=O)CN(C)C(=O)[C@H](CCC(=O)O)NC1=O)C(C)C
notes: also called Ac-Val-Tyr-[Cys(3MeBn)-Glu-Nmg-Asp-Bta-Leu-Thr-Trp-Gln-Cys]-NH2
B7: 3BP-3107 (peptide)
peptide: Hexanoyl-VYCEGDWLTWQC-NH2
modifications: linker 3-12 via mXylylene
SMILES: CCCCCC(=O)N[C@H](C(=O)N[C@@H](Cc1ccc(O)cc1)C(=O)N[C@H]1CSCc2cccc(c2)CSC[C@@H](C(N)=O)NC(=O)[C@H](CCC(N)=O)NC(=O)[C@H](Cc2c[nH]c3ccccc23)NC(=O)[C@H]([C@@H](C)O)NC(=O)[C@H](CC(C)C)NC(=O)[C@H](Cc2c[nH]c3ccccc23)NC(=O)[C@H](CC(=O)O)NC(=O)CNC(=O)[C@H](CCC(=O)O)NC1=O)C(C)C
B8: 3BP-3289 (peptide)
peptide: Ac-VYCE[Sar]D[Trp(5-Cl)]LTWQC-NH2
modifications: linker 3-12 via mXylylene
SMILES: CC(=O)N[C@H](C(=O)N[C@@H](Cc1ccc(O)cc1)C(=O)N[C@H]1CSCc2cccc(c2)CSC[C@@H](C(N)=O)NC(=O)[C@H](CCC(N)=O)NC(=O)[C@H](Cc2c[nH]c3ccccc23)NC(=O)[C@H]([C@@H](C)O)NC(=O)[C@H](CC(C)C)NC(=O)[C@H](Cc2c[nH]c3ccc(Cl)cc23)NC(=O)[C@H](CC(=O)O)NC(=O)CN(C)C(=O)[C@H](CCC(=O)O)NC1=O)C(C)C
notes: also called Ac-Val-Tyr-[Cys(3MeBn)-Glu-Nmg-Asp-5Clw-Leu-Thr-Trp-Gln-Cys]-NH2
B9: 3BP-3060 (peptide)
peptide: Ac-VYCE[Sar]DWLTWQC-NH2
modifications: linker 3-12 via mXylylene
SMILES: CC(=O)N[C@H](C(=O)N[C@@H](Cc1ccc(O)cc1)C(=O)N[C@H]1CSCc2cccc(c2)CSC[C@@H](C(N)=O)NC(=O)[C@H](CCC(N)=O)NC(=O)[C@H](Cc2c[nH]c3ccccc23)NC(=O)[C@H]([C@@H](C)O)NC(=O)[C@H](CC(C)C)NC(=O)[C@H](Cc2c[nH]c3ccccc23)NC(=O)[C@H](CC(=O)O)NC(=O)CN(C)C(=O)[C@H](CCC(=O)O)NC1=O)C(C)C
notes: also called Ac-Val-Tyr-[Cys(3MeBn)-Glu-Nmg-Asp-Trp-Leu-Thr-Trp-Gln-Cys]-NH2
B10: 3BP-3314 (peptide)
peptide: Ac-VYCE[Sar]D[1Nal]LTWQC-NH2
modifications: linker 3-12 via mXylylene
SMILES: CC(=O)N[C@H](C(=O)N[C@@H](Cc1ccc(O)cc1)C(=O)N[C@H]1CSCc2cccc(c2)CSC[C@@H](C(N)=O)NC(=O)[C@H](CCC(N)=O)NC(=O)[C@H](Cc2c[nH]c3ccccc23)NC(=O)[C@H]([C@@H](C)O)NC(=O)[C@H](CC(C)C)NC(=O)[C@H](Cc2cccc3ccccc23)NC(=O)[C@H](CC(=O)O)NC(=O)CN(C)C(=O)[C@H](CCC(=O)O)NC1=O)C(C)C
notes: also called Ac-Val-Tyr-[Cys(3MeBn)-Glu-Nmg-Asp-1Ni-Leu-Thr-Trp-Gln-Cys]-NH2
B11: 3BP-3065 (peptide)
peptide: Ac-VYCEGDW[tBuAla]TWQC-NH2
modifications: linker 3-12 via mXylylene
SMILES: CC(=O)N[C@H](C(=O)N[C@@H](Cc1ccc(O)cc1)C(=O)N[C@H]1CSCc2cccc(c2)CSC[C@@H](C(N)=O)NC(=O)[C@H](CCC(N)=O)NC(=O)[C@H](Cc2c[nH]c3ccccc23)NC(=O)[C@H]([C@@H](C)O)NC(=O)[C@H](CC(C)(C)C)NC(=O)[C@H](Cc2c[nH]c3ccccc23)NC(=O)[C@H](CC(=O)O)NC(=O)CNC(=O)[C@H](CCC(=O)O)NC1=O)C(C)C
notes: also called Ac-Val-Tyr-[Cys(3MeBn)-Glu-Gly-Asp-Trp-Npg-Thr-Trp-Gln-Cys]-NH2
B12: 3BP-3064 (peptide)
peptide: Ac-VYCEGDWLTWQ[Pen]-NH2
modifications: linker 3-12 via mXylylene
SMILES: CC(=O)N[C@H](C(=O)N[C@@H](Cc1ccc(O)cc1)C(=O)N[C@H]1CSCc2cccc(c2)CSC(C)(C)[C@@H](C(N)=O)NC(=O)[C@H](CCC(N)=O)NC(=O)[C@H](Cc2c[nH]c3ccccc23)NC(=O)[C@H]([C@@H](C)O)NC(=O)[C@H](CC(C)C)NC(=O)[C@H](Cc2c[nH]c3ccccc23)NC(=O)[C@H](CC(=O)O)NC(=O)CNC(=O)[C@H](CCC(=O)O)NC1=O)C(C)C
B13: 3BP-3111 (peptide)
peptide: Isovaleryl-VYCEGDWLTWQC-NH2
modifications: linker 3-12 via mXylylene
SMILES: CC(C)CC(=O)N[C@H](C(=O)N[C@@H](Cc1ccc(O)cc1)C(=O)N[C@H]1CSCc2cccc(c2)CSC[C@@H](C(N)=O)NC(=O)[C@H](CCC(N)=O)NC(=O)[C@H](Cc2c[nH]c3ccccc23)NC(=O)[C@H]([C@@H](C)O)NC(=O)[C@H](CC(C)C)NC(=O)[C@H](Cc2c[nH]c3ccccc23)NC(=O)[C@H](CC(=O)O)NC(=O)CNC(=O)[C@H](CCC(=O)O)NC1=O)C(C)C
B14: 3BP-3059 (peptide)
peptide: Ac-VYCE[Aib]DWLTWQC-NH2
modifications: linker 3-12 via mXylylene
SMILES: CC(=O)N[C@H](C(=O)N[C@@H](Cc1ccc(O)cc1)C(=O)N[C@H]1CSCc2cccc(c2)CSC[C@@H](C(N)=O)NC(=O)[C@H](CCC(N)=O)NC(=O)[C@H](Cc2c[nH]c3ccccc23)NC(=O)[C@H]([C@@H](C)O)NC(=O)[C@H](CC(C)C)NC(=O)[C@H](Cc2c[nH]c3ccccc23)NC(=O)[C@H](CC(=O)O)NC(=O)C(C)(C)NC(=O)[C@H](CCC(=O)O)NC1=O)C(C)C
notes: also called Ac-Val-Tyr-[Cys(3MeBn)-Glu-Aib-Asp-Trp-Leu-Thr-Trp-Gln-Cys]-NH2
B15: 3BP-3109 (peptide)
peptide: PhAc-VYCEGDWLTWQC-NH2
modifications: linker 3-12 via mXylylene
SMILES: CC(C)C[C@@H]1NC(=O)[C@H](Cc2c[nH]c3ccccc23)NC(=O)[C@H](CC(=O)O)NC(=O)CNC(=O)[C@H](CCC(=O)O)NC(=O)[C@@H](NC(=O)[C@H](Cc2ccc(O)cc2)NC(=O)[C@@H](NC(=O)Cc2ccccc2)C(C)C)CSCc2cccc(c2)CSC[C@@H](C(N)=O)NC(=O)[C@H](CCC(N)=O)NC(=O)[C@H](Cc2c[nH]c3ccccc23)NC(=O)[C@H]([C@@H](C)O)NC1=O

These binders were tested against human carbonic anhydrase 9 (CAIX) (human, UniProt Q16790 38-459) (assay: FACS competition on HT-29 cells, competitor tracer 3BP-2776; category A = pIC50 >8.0).
Description: CAIX-expressing human HT-29 colorectal cancer cells (DSMZ, RRID: CVCL_0320) were cultured in McCoys's 5A modified medium (Biochrom, #F1015) including 10% fetal calf serum (FCS), 2 mM L-glutamine, 100 U/ml penicillin and 100 μg/mL streptomycin. Cells were detached with Accutase (Biolegend, #423201) and washed in FACS buffer (PBS including 1% FCS). Cells were diluted in FACS buffer to a final concentration of 500.000 cells per ml. 200 μL of the cell suspension were transferred to a u-shaped non-binding 96-well plate (Greiner) and cells were washed in ice-cold FACS buffer.
When biotinylated compounds were used an additional incubation step with 1 μg/mL APC-Streptavidin (Miltenyi; #130-106-791) in 50 μL FACS buffer for 30 minutes on ice was performed.
Cells were washed twice with ice-cold FACS buffer and analyzed in an Attune NxT flow cytometer (Thermo Fisher). Median fluorescence intensities (MFI) of the APC/Cy5-channel were calculated by Attune NxT software.

pIC50, > 8 pic50:
Ac-VFCE[dP]DWLTWE([Apr-DOTA])C-NH2 (linker 3-12 via mXylylene; reading uncertain) [3BP-3874]
{DOTA-APAc}-VYCQ[dP]DWLTWSC-NH2 (linker 3-12 via mXylylene; reading uncertain) [3BP-4104]
B1
B2
{DOTA-APAc}-VYCE[dP]NWLTWSC-NH2 (linker 3-12 via mXylylene; reading uncertain) [3BP-4103]

The binders below were run against human carbonic anhydrase 9 (CAIX) (human, UniProt Q16790 38-459) (assay: FACS competition on HT-29 cells against tracer 3BP-2776; pIC50 category A = pIC50 >8.0).

pIC50, > 8 pic50:
B3
B4
B5
B6
B7
B8
B9
B10
B11
B12
B13
B14
B15
{Bz′}-VYCEGDWLTWQC-NH2 (linker 3-12 via mXylylene) [3BP-3108]
